Columns and labels:
[1] = target: CwlDΔ25-His6 (C. difficile); experiment: SEC
[2] = target: CwlDΔ25-His6 (C. difficile); experiment: pull-down
[3] = target: GerSΔ22 (untagged) (C. difficile); experiment: crystal structure
[4] = target: CwlD R169D-His6 (C. difficile); experiment: pull-down
[5] = target: CwlD R169Q-His6 (C. difficile); experiment: pull-down
[6] = target: CwlD_(E65A)-His6 (C. difficile); experiment: SEC
[7] = target: CwlD_(H49A)-His6 (C. difficile); experiment: SEC
[8] = target: CwlD_(E199A)-His6 (C. difficile); experiment: SEC
[9] = target: GerSΔ22-His6 (C. difficile); experiment: SEC
[10] = target: FLAG-tagged CwlD_(R169D) (C. difficile); experiment: co-IP
[11] = target: CwlD_(E199A)-FLAG (C. difficile); experiment: co-IP
[12] = target: FLAG-tagged CwlD_(H49A) (C. difficile); experiment: co-IP

## CwlDΔ25-His6 (domain or fragment)
[1]
  stoichiometry N: 2

## GerS D106A (untagged) (domain or fragment)
[2]
  reduction of GerS co-purification against the wild-type complex: 90%

## GerS D106R (untagged) (domain or fragment)
[2]
  reduction of GerS co-purification against the wild-type complex: 90%

## GerSΔ22 (untagged) (domain or fragment)
[3]
  stoichiometry N: 2
[4]
  reduction of GerS co-purification against the wild-type complex: 90%
[5]
  reduction of GerS co-purification against the wild-type complex: 90%
[6]
  stoichiometry N: 1
[7]
  stoichiometry N: 1
[8]
  stoichiometry N: 1
[1]
  stoichiometry N: 1

## GerSΔ22-His6 (domain or fragment)
[9]
  stoichiometry N: 2

## cleaved form of GerS (untagged, in sporulating C. difficile) (natural protein)
[10]
  fold reduction of GerS pulled down against wild-type FLAG-tagged CwlD: 5 fold
[11]
  decrease of the interaction against the wild-type CwlD:GerS complex: 40%
[12]
  fold reduction of GerS pulled down against wild-type FLAG-tagged CwlD: 5 fold
